According to patent US20250283063, “NOVEL CRISPR-CAS12I SYSTEMS AND USES THEREOF” (HUIDAGENE THERAPEUTICS (SINGAPORE) PTE. LTD., published 2025):
Positions count from the first letter of the chain named.

Legend:
xCas12i-D892R (v4.3) = molecular target: T1, xCas12i-D892R (v4.3) (D892R); assay: cell_activity; HEK293T EGFP reporter; conditions: tags: NLS
T1 chain: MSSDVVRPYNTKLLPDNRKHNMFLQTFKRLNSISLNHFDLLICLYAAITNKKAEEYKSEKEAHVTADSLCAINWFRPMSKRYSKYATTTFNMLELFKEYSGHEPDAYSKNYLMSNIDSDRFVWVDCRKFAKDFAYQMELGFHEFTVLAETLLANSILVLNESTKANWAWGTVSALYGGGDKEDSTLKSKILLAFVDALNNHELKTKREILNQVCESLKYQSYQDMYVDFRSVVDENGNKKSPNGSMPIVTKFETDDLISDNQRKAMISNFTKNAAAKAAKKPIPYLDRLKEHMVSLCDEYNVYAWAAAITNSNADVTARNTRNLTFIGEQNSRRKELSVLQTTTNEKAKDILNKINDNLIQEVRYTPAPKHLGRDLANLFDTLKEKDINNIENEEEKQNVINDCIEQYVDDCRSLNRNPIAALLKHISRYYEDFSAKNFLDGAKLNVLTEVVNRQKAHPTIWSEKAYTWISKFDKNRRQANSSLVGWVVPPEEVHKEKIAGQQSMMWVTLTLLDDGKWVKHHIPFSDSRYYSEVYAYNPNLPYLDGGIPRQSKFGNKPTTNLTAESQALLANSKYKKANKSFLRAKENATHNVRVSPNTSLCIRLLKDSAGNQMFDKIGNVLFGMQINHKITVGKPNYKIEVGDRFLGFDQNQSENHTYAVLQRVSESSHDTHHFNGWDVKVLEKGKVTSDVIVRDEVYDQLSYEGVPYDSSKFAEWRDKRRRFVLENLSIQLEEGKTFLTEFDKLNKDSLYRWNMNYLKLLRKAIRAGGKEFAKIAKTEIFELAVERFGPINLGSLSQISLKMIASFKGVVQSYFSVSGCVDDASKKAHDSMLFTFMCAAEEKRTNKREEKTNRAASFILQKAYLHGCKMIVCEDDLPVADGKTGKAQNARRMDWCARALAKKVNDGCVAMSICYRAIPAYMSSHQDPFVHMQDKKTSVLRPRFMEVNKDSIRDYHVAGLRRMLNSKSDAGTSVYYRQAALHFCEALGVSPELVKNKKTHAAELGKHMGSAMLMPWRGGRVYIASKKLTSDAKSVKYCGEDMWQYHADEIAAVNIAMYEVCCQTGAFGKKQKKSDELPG
From the text: (§1) To vary xCas12i's dsDNA cleavage activity and/or expand its scope of PAM site recognition, the applicant engineered xCas12i protein via mutagenesis and screened for mutants with various dsDNA cleavage activity and broader PAM using a dual plasmid fluorescent reporter system similar to the dual plasmid fluorescent reporter system in Example 1, except that the EGxxxxFP-targeting guide RNA (SEQ ID NO: 51; “crON/crRNA On-target”) coding sequence operably linked to U6 promoter was not located on the expression plasmid together with the xCas12i (or its mutant) coding sequence (SEQ ID NO: 31) but located on the reporter plasmid together with the BFP-P2A-EGxxxxFP coding sequence (SEQ ID NO: 41) (referring to “On-Target Reporter” in FIG. 1B). […] The applicant then individually transfected the expression plasmid and the reporter plasmid into HEK293T cells and analyzed them by FACS (FIG. 1B). […]

xCas12i-E875R = molecular target: T2, xCas12i-E875R (E875R); assay: cell_activity; RuvC catalytic residue; cleavage readout; conditions: tags: NLS
T2 chain: T1 chain with E875R, R892D
From the text: as §1

B1: crEGFP DR-T1 ; EGxxxxFP reporter target (ssRNA ; dsDNA)
RNA: AUGACUCAGAAAUGUGUCCCCAGUUGACACCCAUUACAGUAGGAGCAUAC
DNA 1: GGATCCGTGTCTTTCCCATTACAGTAGGAGCATACGGGAGACAAGCTTTG
DNA 2: CAAAGCTTGTCTCCCGTATGCTCCTACTGTAATGGGAAAGACACGGATCC
B1 was tested, and the binding signal (xCas12i-D892R (v4.3)) was 1.42 relative to WT and the binding signal (xCas12i-E875R) was 0.1 relative to WT.
